{"source": "patent US8658372", "target": "botulinum toxoid A (UniProt P0DPI0)", "sequence (P0DPI0 2-1296)": "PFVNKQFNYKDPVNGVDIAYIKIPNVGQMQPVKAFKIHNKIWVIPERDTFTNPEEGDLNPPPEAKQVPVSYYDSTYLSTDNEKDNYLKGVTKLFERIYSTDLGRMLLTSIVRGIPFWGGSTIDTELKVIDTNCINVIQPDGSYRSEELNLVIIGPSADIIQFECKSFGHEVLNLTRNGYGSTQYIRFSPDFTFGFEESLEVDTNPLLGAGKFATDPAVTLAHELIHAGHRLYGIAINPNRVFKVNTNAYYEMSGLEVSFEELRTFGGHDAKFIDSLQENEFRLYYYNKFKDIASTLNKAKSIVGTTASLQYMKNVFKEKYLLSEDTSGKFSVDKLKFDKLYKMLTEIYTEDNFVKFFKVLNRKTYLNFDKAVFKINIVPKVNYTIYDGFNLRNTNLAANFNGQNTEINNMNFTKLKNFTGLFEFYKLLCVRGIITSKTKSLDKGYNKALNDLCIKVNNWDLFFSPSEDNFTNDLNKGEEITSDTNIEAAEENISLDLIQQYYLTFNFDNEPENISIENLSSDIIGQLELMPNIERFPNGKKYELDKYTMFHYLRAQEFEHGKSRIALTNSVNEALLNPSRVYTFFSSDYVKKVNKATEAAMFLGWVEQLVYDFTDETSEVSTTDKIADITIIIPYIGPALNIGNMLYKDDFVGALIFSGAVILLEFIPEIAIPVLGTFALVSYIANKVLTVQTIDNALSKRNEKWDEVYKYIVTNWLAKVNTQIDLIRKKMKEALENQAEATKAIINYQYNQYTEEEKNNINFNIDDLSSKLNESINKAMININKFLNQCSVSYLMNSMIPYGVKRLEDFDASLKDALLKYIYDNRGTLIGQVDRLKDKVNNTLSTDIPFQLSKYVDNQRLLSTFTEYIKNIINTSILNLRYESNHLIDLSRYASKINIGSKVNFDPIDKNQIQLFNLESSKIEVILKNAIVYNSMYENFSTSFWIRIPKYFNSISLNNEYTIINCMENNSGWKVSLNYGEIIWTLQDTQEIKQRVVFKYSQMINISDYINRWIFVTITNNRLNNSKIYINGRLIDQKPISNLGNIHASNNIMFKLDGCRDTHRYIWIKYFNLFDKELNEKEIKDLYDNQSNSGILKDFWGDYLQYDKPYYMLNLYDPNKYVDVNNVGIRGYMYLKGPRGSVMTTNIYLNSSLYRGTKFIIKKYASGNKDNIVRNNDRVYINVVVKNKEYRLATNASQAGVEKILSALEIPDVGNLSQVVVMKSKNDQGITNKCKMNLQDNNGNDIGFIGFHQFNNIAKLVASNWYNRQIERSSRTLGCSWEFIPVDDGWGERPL", "assay": "Luminex AMP-capture assay with antibody tracers", "data": [{"substance": "AMP-derivatized Luminex beads", "values": [{"measurement": "lowest detectable concentration", "result": 1, "unit": "µg/mL"}]}]}
